# According to the nanobody polyreactivity screen of Harvey et al. (2022):
# Test: yeast display, Sf9 membrane polyspecificity reagent, FACS + sequencing; frameworks hold sequencing errors
# Outline: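 Nanobodies from a synthetic yeast display library (Saccharomyces cerevisiae BJ5465), induced 36–48 hours with galactose, were stained 1 hour at 4 °C with 10% biotinylated, detergent-solubilized Sf9 membrane reagent, enriched on streptavidin microbeads, then FACS-sorted. Anti-HA (expression) and streptavidin (reagent binding) fluorescence set low and high (top ~1%) gates. Polyreactivity labels come from the gate of origin. Genes were colony-PCR amplified, MiSeq 2 × 250 sequenced and filtered by CDR length.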
row,Sequence,polyreactivity (PSR sort gate)
1,QVQLVESGGGLVQAGGSLRLSCAASGITFAYYVMGWYRQAPGKERELVAAINWSGGSTYYADSVKGRFTISRDNAKNTVYLQMNSLKPEDTAVYYCAADWSTWYGEKFYWGQGTQVTVSS,high polyreactivity
2,QVQLVESGGGLVQAGGRLRLSCAASGRTFGSYAMGWYRQAPGKERELVAAISWSDGSTYYADSVKGRFTISRDNAKNTVYLQMNSLKPEDTAVYYCHWAKWYRYGGYRSRFDYWGQGTQVTVSS,low polyreactivity
3,QVQLVESGGGLVQAGGSLRLSCSASGFIFQGYAMGWDRQAPGKERELVATITTSSRTYYADSVKGRFTISRDNAKNTVYLQMYSLKPEDTAVYYCATRGSYRSQRWYGYWGQGTQVTVSS,high polyreactivity
4,QVQLVESGGGLVQAGGSLRLICAASGSIFGLYAMGWYRPAPGKEREFVASITYSGGSTYYADSVKGRFTISRDNAKNTVYLQMNSLKPEDTAVYYCAAESYWGYDYWGQGTQVTVSS,high polyreactivity
5,QVQLVESGGGLVQAGGSLRLSCAASGISYRWYAMGWYRQAPGKERELVAAISSGGSTTYADSVKGRFTISRDNAKNTVYLQMNSLKPEDTAVYYCAARYQWYSADYDYWGQGTQVTVSS,high polyreactivity
6,QVQRVESGGGLVQAGGSLRLSCSASGRTFGHNTMGRYRQAPGKETEFVAAIDFNGGSTYYADSVKGRFTISRDNAQNTVYLQMNSLKPEDTAVYYCAADIYFYYYGSYDYWGQGTQVTVSS,low polyreactivity
7,QVQLVESGGGLVQAGGSLRLSCAASGSTFYIYAMGWYRQAPGKERELVARISGSGGSTYYADSVKGRFTISRDNAKNTVELQMNSLKPEDTAVYYCAADDIYKYYQYYAFPYYRYDYWGQGTQVTVSS,low polyreactivity
8,QVQLVESGGGLVQAGGSLRLSCAASGLIFTYYAMGWYRQAPGKERELVAAITSGGSTNYADSVKGRFTISRDNAKYTVYLQMNSLKPEDTAVYYCAADYDTGSERYEYWGQGSQVTVSS,low polyreactivity
9,QVQLVESGGGLVQAGGSLRLSCAASGGIFRYYAMGWYRQAPGKERELVARISRRAGSTYYADSVKGRFTISRDNAKNTVYLQMNSLKPEDTAVYYCNKVGGTLGYDYWGQGTQVTVSS,high polyreactivity
10,QVQLVESGGGLVQAGGSLRLSCAASGYIFKYYAKGWYRQAPGKERELVAAISWDGTDTYYADSVKGRFTISRDNAKNTVYLQMNSLIPEDTAVYYCNADYDVYGWRNYWGQGTHVTVSS,low polyreactivity
11,QVQLVESGGGLVQAGGSLRLSCAASGSTFRKNAMGWYRQAPGKERELVASISISGGRTNYADSVKGRFTISRDNAKNTVYLQMNSLKPEDTAVYYCAAGYPWYQLPRPLEYYYWGQGTQVTVSS,high polyreactivity
12,QVQLVESGGGLVQAGGSLRLSCAASGSTFAYYTMGWYRQAPGKERELVAAISAGGGSTYYADSVKGRFTISRDNAKNTVYLQMNSLKPEDTAVYYCAVRVLIHTNTRRLDYWGQGTQVTVSS,high polyreactivity
13,QVQLVESGGGLVQAGGSLRLSCAASGSISAQNAMGRYRQAPGKERELVATINSGGRTNYADSVKGRFTISRDNAKNTVYLQMNSLNPEDTAVYYCNTVVRGAYTYGDVSKYDYWGQGNQVTVSS,low polyreactivity
14,QVQLVESGGGLVQAGGSLRLSCAASGSIFWDYAMGRYRQAPGKERELVASITSGGSTYYADSVKGRFTISRDNAKNTVYLQMNSLKPEDTAVYYCAADGHTRHWGQTGRGAMYYWGQGTQVTVSS,low polyreactivity
15,QVQLVESGGGLVQAGGSLRLSCAASGFISVSNAMGWYRQAPGKERELVAAIRGSGGSTYYADSVKGRFTISRDNAKNTVYLQMNSLKPEDTAVYYCAATAYPRGSPPYNYWGQGTQVTVSS,high polyreactivity
16,QVQLVESGGRLVQAGGSLRLSCAASGRIFTQYAMGWYRQSPGKERELVAAINASDGSTYADSVKGRFTSSRDNAQNTVYLQMKRLKPADTAVYYCNVTGGTYDFTRWSEFDHWGQGTQVTVSS,low polyreactivity
17,QLQLVDSGGGLVQAGGSLRLSCAASGSIFGAYAMGWYRHAPGKERELVAAINYGGATTYYADSVKGRFTISRDNAKNTVYLQMNSLIPEDTAVYYCAADYLYAYGDVADVYGWYAYYYWGQGTQVTVSS,low polyreactivity
